Results from patent US11939397B2, “ENTPD2 antibodies, combination therapies, and methods of using the antibodies and combination therapies” (Novartis AG, priority 2018, dated 2024).

Assays:
cyno ENTPD2 = test: FACS binding to cyno ENTPD2 expressing cells; set-up: species or system cynomolgus monkey
Protocol: FACS screening: Specific binding of candidate antibodies to endogenously expressed ENTPD2 was assessed by flow cytometry. Cells were rinsed thoroughly with 1×PBS and treated with Accutase (Millipore #SCR005) to lift from growth plates and resuspended at approximately 1×10^5 cells/90 μL in 1×FACS buffer (2% FBS+0.1% NaN3 in PBS). In a 96-well U-bottom plate, 10 μL of 10× antibody solution in FACS buffer was pre-seeded and 90 μL of cell suspension was added. Cell were incubated for 30 minutes at 4° C., washed 1× with cold PBS and resuspended in 100 μL of 1:500 secondary antibody 1×FACS buffer (Allophycocyanin conjugated F(ab′)2 goat anti-human IgG, Fcγ specific; Jackson Immunoresearch, Cat #109-136-098). After additional incubation for 15 min at 4° C., cells were washed twice with PBS and resuspended in 100 μL of 1×FACS buffer with 4 μg/mL propidium iodide (Life Technologies, Cat #P3566). Geometric mean fluorescence intensity was calculated on live single cells using FlowJo software.

B16F10 tumor = test: Syngeneic B16F10 tumor model, tumor growth and tumor T cell influx; type: in vivo, C57BL/6 mice
Protocol: B16F10 model was established in female C57BL/6 mice by subcutaneous injection of 0.5×10^6 cells into the right flank of each mouse. On day 7 once tumors reached approximately 30 mm^3, mice were randomized according to tumor volume into treatment groups (n=10 per group). Mice received treatment of either anti-mouse ENTPD2 mAb13 at a final dose 15 mg/kg, anti-PD-1 Ab (clone RMP1-14 Bio X Cell, West Lebanon, NH) i.p. at a final dose of 10 mg/kg or the combination of both treatments on days 1, 5, and 8. All doses were adjusted to individual mouse body weights.
In order to understand the impact of treatments on the tumor microenvironment, mice were euthanized on day 8 and tumors were dissociated in HyClone RPMI1640 media (GE Healthcare, Pittsburgh, PA) using gentleMacs C-tubes (Miltenyi Biotec, Auburn, CA) on the gentleMacs Octo Dissociator (Miltenyi Biotec, Auburn, CA). Approximately 2×10^6 dissociated tumor cells were blocked with rat anti-mouse CD16/CD32 Ab (Biolegend, San Diego, CA) to reduce non-specific FcyRIII/II binding and subsequently stained with the following cocktail of Abs: rat anti-mouse CD45-BUV395 (clone 30-F11) (BD Biosciences, San Jose, CA), rat anti-mouse CD8a-BUV737 (clone 53-6.7) (BD Biosciences, San Jose, CA), rat anti-mouse CD4-BV510 (clone RM4-5) (BD Bioscience, San Jose CA), anti-mouse CD69-PercPCy5.5 (clone H1-2F3) (Biolegend, San Diego, CA) and rat anti-mouse CD25-eFluor450 (clone eBio3C7) (eBioscience, San Diego, CA) at the manufacturers' recommended dilutions. All incubations and washes were performed in FACS Buffer composed of 1× HyClone Phosphate Buffered Saline (GE Healthcare, Pittsburgh, PA), 1% HyClone Fetal Bovine Serum (GE Healthcare, Pittsburgh, PA), 2 mM EDTA (ThermoFisher, Waltham MA). After staining with the cell surface antigen antibody cocktail, dissociated tumor cells were washed in FACS buffer, fixed and permeabilized using the eBioscience Foxp3/Transcription Factor Staining Buffer Kit (ThermoFisher, Waltham MA) to allow for intracellular staining with the mouse anti-mouse FOXP3-eFluor660 (clone 150D/E4) (eBioscience, San Diego, CA).

[1] = mAb13 and anti-PD-1 Ab combination, day 8

cyno ENTPD2, sequence (as listed by the source): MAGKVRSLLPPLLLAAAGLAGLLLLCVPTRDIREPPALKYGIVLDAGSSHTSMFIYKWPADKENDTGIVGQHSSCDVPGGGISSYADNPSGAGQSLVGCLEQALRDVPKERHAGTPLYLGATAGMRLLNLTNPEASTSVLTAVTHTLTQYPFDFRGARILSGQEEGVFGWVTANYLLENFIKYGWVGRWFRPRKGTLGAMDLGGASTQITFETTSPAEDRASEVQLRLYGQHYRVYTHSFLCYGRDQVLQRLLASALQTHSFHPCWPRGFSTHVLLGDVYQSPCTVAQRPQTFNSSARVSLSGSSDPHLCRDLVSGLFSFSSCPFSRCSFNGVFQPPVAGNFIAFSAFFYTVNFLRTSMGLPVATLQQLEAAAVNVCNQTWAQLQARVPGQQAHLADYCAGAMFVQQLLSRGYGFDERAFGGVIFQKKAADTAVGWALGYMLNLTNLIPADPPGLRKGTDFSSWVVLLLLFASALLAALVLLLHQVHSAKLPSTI

B1: mAb13: anti-mouse ENTPD2 monoclonal antibody, VH SEQ ID NO: 191, VL SEQ ID NO: 202 (antibody, V domains shown)
VH: QVQLVQSGAELKQPGQSVKISCKASGYTFTHYGMNWVKQAPGQGLKWMGWINTDTGNPTYADDFKGRFVFSLDTSVSTAYLQISNLKNEDTATYYCVRYGTLYSGYGFFFDSWGQGTLVTVSS
VL: DIMMTQSPSSLSVSAGEKATITCKSSQSLFNSNTNKNYLNWYLQKPGQSPKLLFYYASTRHTGVPDRFIGSGSGTDFTLTITSVQDEDLADYYCQQWYSYPWTFGPGTKLEIK
Cyno ENTPD2
  binding to cyno ENTPD2: no binding
B16F10 tumor; mAb13 15 mg/kg in combination with anti-PD-1 Ab 10 mg/kg, days 1, 5, 8
  tumor growth relative to No Treatment control, combination: significant reduction in tumor growth
B16F10 tumor; mAb13 15 mg/kg or anti-PD-1 Ab 10 mg/kg i.p. alone, days 1, 5, 8
  anti-tumor efficacy, treatment alone: No significant anti-tumor efficacy
B16F10 tumor; [1]
  activated CD4 T-helper cells (CD45+ CD8− CD4+ FOXP3− CD69+ CD25+) in tumor, increase vs No Treatment: 7.0 fold
  activated CD8 T cells (CD45+ CD4− CD8+ CD69+ CD25+) in tumor, change vs No Treatment: 5.8 fold
